This note sets out measurements from patent publication US20140378663A1.

For experiment [1], the target named is C1q complement (Calbiochem) (UniProt P02745). Nature of the experiment: ELISA, 293-F supernatant, vs parent 256N/378V/383N/434Y. For orientation: An ELISA detects its analyte on a solid surface through an enzyme-linked reagent.
The target in experiment [2] is FcRn-p3 (fusion protein of β2 microglobulin chain and FcRn α-chain fused to bacteriophage protein p3 and CVDE protein) (UniProt P61769). Described as above.
Sequence of FcRn-p3 (fusion protein of β2 microglobulin chain and FcRn α-chain fused to bacteriophage protein p3 and CVDE protein) (P61769 21-119, chain 1 of 2): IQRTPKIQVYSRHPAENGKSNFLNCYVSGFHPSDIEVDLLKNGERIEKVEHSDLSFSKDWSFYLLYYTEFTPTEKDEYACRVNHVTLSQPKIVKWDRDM
Sequence of FcRn-p3 (fusion protein of β2 microglobulin chain and FcRn α-chain fused to bacteriophage protein p3 and CVDE protein) (P55899 24-290, chain 2 of 2, further chain): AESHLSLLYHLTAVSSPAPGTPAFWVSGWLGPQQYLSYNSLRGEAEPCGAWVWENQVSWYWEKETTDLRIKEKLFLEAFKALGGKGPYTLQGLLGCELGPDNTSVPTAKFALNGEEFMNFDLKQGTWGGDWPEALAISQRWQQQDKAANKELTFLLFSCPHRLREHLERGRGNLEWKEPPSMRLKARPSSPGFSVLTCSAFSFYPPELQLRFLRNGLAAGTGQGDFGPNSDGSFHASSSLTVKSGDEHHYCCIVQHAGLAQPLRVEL
Experiment [3] addresses FcγRI (R&D system) (human) (UniProt P12314). The description is as above.
In experiment [4] the target is FcγRIIaR131 (R&D system) (human) (UniProt P12318). Described as above.
Sequence of FcγRIIaR131 (R&D system) (human) (P12318 36-218 H167R limits assumed): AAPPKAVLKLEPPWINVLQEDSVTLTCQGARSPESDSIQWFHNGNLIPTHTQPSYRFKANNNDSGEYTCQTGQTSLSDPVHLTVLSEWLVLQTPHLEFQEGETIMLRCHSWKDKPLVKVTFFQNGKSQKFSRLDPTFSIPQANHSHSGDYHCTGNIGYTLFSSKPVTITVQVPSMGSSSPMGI
In experiment [5] the target is FcγRIIb (R&D system) (human) (UniProt P31994). The description is as above.
Sequence of FcγRIIb (R&D system) (human) (P31994 46-217 limits assumed): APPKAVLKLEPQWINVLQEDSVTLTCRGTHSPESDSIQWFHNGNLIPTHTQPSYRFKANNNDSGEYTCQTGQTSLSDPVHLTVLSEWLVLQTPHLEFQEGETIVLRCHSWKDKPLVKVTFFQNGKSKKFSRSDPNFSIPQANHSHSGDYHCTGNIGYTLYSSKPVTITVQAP
Experiment [6] concerns the target FcRn-p3 (fusion protein of β2 microglobulin chain and FcRn α-chain fused to bacteriophage protein p3 and CVDE protein) (UniProt P61769). Put plainly: ELISA, purified IgG from YB2/0, vs parent R603-256N/378V/383N/434Y.
Experiment [7] addresses FcγRI (R&D system) (human) (UniProt P12314). The experiment is described as above.
Experiment [8] addresses FcγRIIaH131 (PX Therapeutics, His-tagged) (human) (UniProt P12318). Described as above.
Experiment [9] concerns the target FcγRIIaR131 (R&D system) (human) (UniProt P12318). The experiment is described as above.
Experiment [10] deals with FcγRIIb (R&D system) (human) (UniProt P31994). Described as above.
For experiment [11], the target named is T1, CD20 antigen on Raji lymphoblastoid B cells (UniProt P11836).
T1 sequence (looked up): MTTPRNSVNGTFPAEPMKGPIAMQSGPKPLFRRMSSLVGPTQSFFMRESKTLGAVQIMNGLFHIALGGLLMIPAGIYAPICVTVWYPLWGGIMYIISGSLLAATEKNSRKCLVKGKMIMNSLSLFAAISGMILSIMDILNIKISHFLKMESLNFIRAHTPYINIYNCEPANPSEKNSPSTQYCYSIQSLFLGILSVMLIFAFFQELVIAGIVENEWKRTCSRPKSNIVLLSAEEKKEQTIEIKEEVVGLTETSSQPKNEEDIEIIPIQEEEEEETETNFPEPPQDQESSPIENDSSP
Put plainly: flow cytometry on Raji cells. (In general: Flow cytometry measures light scatter and fluorescence of single cells or particles in a stream.)

Experiment [12] has as its target C1q complement (Calbiochem) (UniProt P02745). Put plainly: ELISA, 293-F supernatant, vs R603 IgG-WT.
The target in experiment [13] is FcRn-p3 (fusion protein of β2 microglobulin chain and FcRn α-chain fused to bacteriophage protein p3 and CVDE protein) (UniProt P61769). Nature of the experiment: ELISA, 293-F supernatant, vs R603 IgG-WT.
Experiment [14] has as its target FcγRI (R&D system) (human) (UniProt P12314). Nature of the experiment: ELISA, 293-F supernatant, vs R603 IgG-WT.
For experiment [15], the target named is FcγRIIIaV158 (R&D system) (human) (UniProt P08637). Put plainly: ELISA, 293-F supernatant, vs R603 IgG-WT.
Sequence of FcγRIIIaV158 (R&D system) (human) (P08637 17-208 F176V limits assumed): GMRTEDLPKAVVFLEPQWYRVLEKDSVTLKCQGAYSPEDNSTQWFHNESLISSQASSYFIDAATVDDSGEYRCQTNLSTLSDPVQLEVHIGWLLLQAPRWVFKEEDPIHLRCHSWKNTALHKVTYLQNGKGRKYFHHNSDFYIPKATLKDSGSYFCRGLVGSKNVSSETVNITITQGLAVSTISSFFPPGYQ
For experiment [16], the target named is FcγRIIaR131 (R&D system) (human) (UniProt P12318). Put plainly: ELISA, 293-F supernatant, vs R603 IgG-WT.
The target of experiment [17] is FcγRIIb (R&D system) (human) (UniProt P31994). Put plainly: ELISA, 293-F supernatant, vs R603 IgG-WT.
The target in experiment [18] is Recombinant soluble human FcRn (human) (UniProt P55899). Put plainly: SPR (BIAcore X100), FcRn immobilised, pH 6.0.
Sequence of Recombinant soluble human FcRn (human) (P55899 24-290 limits assumed, chain 1 of 2): as the sequence (P55899 24-290, chain 2 of 2, further chain) above
Sequence of Recombinant soluble human FcRn (human) (P61769 21-119 limits assumed, chain 2 of 2, further chain): as the sequence (P61769 21-119, chain 1 of 2) above
Experiment [19] shares this target. Put plainly: SPR, FcRn immobilised, pH 6.0; reference R603. (Surface plasmon resonance follows binding to a sensor surface in real time, without labels.)
Experiment [20] addresses FcRn-p3 (fusion protein of β2 microglobulin chain and FcRn α-chain fused to bacteriophage protein p3 and CVDE protein) (UniProt P61769). Put plainly: ELISA, purified IgG from YB2/0, vs R603 IgG-WT.
The target of experiment [21] is FcγRI (R&D system) (human) (UniProt P12314). Put plainly: ELISA, purified IgG from YB2/0, vs R603 IgG-WT.
Sequence of FcγRI (R&D system) (human) (P12314 16-288 limits assumed): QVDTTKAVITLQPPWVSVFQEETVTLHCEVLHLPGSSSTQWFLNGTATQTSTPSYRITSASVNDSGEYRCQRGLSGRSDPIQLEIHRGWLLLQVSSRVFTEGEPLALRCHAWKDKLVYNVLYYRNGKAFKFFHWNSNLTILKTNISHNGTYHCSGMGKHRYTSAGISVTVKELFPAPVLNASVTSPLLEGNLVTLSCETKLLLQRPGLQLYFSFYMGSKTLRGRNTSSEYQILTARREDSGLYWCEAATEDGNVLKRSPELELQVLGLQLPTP
The target of experiment [22] is FcγRIIIaF158 (PX Therapeutics, His-tagged) (human) (UniProt P08637). Put plainly: ELISA, purified IgG from YB2/0, vs R603 IgG-WT.
Sequence of FcγRIIIaF158 (PX Therapeutics, His-tagged) (human) (P08637 17-208 limits assumed): as the sequence (P08637 17-208 F176V limits assumed) above, with V160F counted along it
The target in experiment [23] is FcγRIIIaV158 (R&D system) (human) (UniProt P08637). Put plainly: ELISA, purified IgG from YB2/0, vs R603 IgG-WT.
Experiment [24] has as its target FcγRIIaH131 (PX Therapeutics, His-tagged) (human) (UniProt P12318). Nature of the experiment: ELISA, purified IgG from YB2/0, vs R603 IgG-WT.
For experiment [25], the target named is FcγRIIaR131 (R&D system) (human) (UniProt P12318). Put plainly: ELISA, purified IgG from YB2/0, vs R603 IgG-WT.
In experiment [26] the target is FcγRIIb (R&D system) (human) (UniProt P31994). Put plainly: ELISA, purified IgG from YB2/0, vs R603 IgG-WT.
Experiment [27] addresses C1q complement (Calbiochem) (UniProt P02745). Nature of the experiment: ELISA, 293-F supernatant, vs parent 259I/315D/434Y.
The target in experiment [28] is FcRn-p3 (fusion protein of β2 microglobulin chain and FcRn α-chain fused to bacteriophage protein p3 and CVDE protein) (UniProt P61769). Put plainly: ELISA, 293-F supernatant, vs parent 259I/315D/434Y.
For experiment [29], the target named is FcγRI (R&D system) (human) (UniProt P12314). Nature of the experiment: ELISA, 293-F supernatant, vs parent 259I/315D/434Y.
For experiment [30], the target named is FcγRIIIaV158 (R&D system) (human) (UniProt P08637). Put plainly: ELISA, 293-F supernatant, vs parent 259I/315D/434Y.
The target in experiment [31] is FcγRIIaR131 (R&D system) (human) (UniProt P12318). Put plainly: ELISA, 293-F supernatant, vs parent 259I/315D/434Y.
Experiment [32] addresses FcγRIIb (R&D system) (human) (UniProt P31994). Put plainly: ELISA, 293-F supernatant, vs parent 259I/315D/434Y.
The target in experiment [33] is FcRn-p3 (fusion protein of β2 microglobulin chain and FcRn α-chain fused to bacteriophage protein p3 and CVDE protein) (UniProt P61769). Nature of the experiment: ELISA, purified IgG from YB2/0, vs parent R603-259I/315D/434Y.
The target of experiment [34] is FcγRI (R&D system) (human) (UniProt P12314). Described as above.
Experiment [35] deals with FcγRIIIaF158 (PX Therapeutics, His-tagged) (human) (UniProt P08637). Described as above.
For experiment [36], the target named is FcγRIIIaV158 (R&D system) (human) (UniProt P08637). The experiment is described as above.
The target of experiment [37] is FcγRIIaH131 (PX Therapeutics, His-tagged) (human) (UniProt P12318). The description is as above.
Sequence of FcγRIIaH131 (PX Therapeutics, His-tagged) (human) (P12318 34-217 limits assumed): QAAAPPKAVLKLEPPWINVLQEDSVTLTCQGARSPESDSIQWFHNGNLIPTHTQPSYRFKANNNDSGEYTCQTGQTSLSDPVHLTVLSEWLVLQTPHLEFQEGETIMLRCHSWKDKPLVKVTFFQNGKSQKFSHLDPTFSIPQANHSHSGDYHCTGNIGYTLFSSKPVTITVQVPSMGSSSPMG
In experiment [38] the target is FcγRIIaR131 (R&D system) (human) (UniProt P12318). The description is as above.
Experiment [39] addresses FcγRIIb (R&D system) (human) (UniProt P31994). The description is as above.

Sequence of C1q complement (Calbiochem) (P02745 23-245, chain 1 of 3): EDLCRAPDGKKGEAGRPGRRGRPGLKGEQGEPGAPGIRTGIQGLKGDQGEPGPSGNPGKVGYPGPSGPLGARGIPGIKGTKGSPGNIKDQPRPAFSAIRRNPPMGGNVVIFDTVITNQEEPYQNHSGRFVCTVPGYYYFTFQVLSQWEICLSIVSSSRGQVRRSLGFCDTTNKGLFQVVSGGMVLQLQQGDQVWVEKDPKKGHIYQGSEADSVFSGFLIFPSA
Sequence of C1q complement (Calbiochem) (P02746 28-253, chain 2 of 3, further chain): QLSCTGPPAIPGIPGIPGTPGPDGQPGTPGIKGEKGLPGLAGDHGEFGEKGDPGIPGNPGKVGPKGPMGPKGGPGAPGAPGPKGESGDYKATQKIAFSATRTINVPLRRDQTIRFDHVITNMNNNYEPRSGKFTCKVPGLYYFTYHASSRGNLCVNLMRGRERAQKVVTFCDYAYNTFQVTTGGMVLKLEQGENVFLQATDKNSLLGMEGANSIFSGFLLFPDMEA
Sequence of C1q complement (Calbiochem) (P02747 29-245, chain 3 of 3, further chain): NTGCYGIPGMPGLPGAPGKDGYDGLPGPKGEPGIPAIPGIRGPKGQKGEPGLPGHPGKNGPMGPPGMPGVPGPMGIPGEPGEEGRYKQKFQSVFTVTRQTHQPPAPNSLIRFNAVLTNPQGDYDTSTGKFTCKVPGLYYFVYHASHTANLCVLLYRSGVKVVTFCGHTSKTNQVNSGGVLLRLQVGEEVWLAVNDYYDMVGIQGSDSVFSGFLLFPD

As for “R603 anti-CD20 IgG1 variant 256N/294Del/378V/383N/434Y (antibody)”, the ratio to the IgG1 without 294Del in experiment [1] came out at 0.04; in experiment [2], 0.75; in experiment [3], 0.66; in experiment [4], 0.004; in experiment [5] it was 0.002; in [6], 1.04. Further, the ratio to the IgG1 without 294Del in [7] was 0.07; in experiment [8] it was 0.09; in experiment [9], 0.06; in experiment [10], 0.25.

As a reminder, the Kd is the concentration at which binding is half-saturated. Consider “R603 anti-CD20 IgG1 variant 259I/294Del/315D/434Y (antibody)”, for which the Ag binding MFI (Arbitrary Unit) in experiment [11] amounted to 96. Further, the Ratio/IgG-WT was 0.13 in experiment [12]; 2.87 in [13]; 0.34 in experiment [14]; 0.02 in experiment [15]; 0.01 in [16]; 0.01 in experiment [17]. Further, the Ratio/IgG-WT in [20] stood at 5.97; in experiment [21] it was 0.1; in experiment [22] it was 0.08; in [23], 0.05; in [24], 0.08; in [25] it was 0.07. Moreover, the Ratio/IgG-WT in experiment [26] stood at 0.41. The Kd in experiment [18] came to 28 nM. Further, the Ratio WT/IgG (KD) in experiment [19] was found to be 3.54. For the same substance, the ratio to the IgG1 without 294Del is 0.1 in experiment [27]; 0.66 in experiment [28]; 0.41 in experiment [29]; 0.02 in experiment [30]; 0.01 in experiment [31]; 0.01 in experiment [32]. Also, the ratio to the IgG1 without 294Del in experiment [33] turned out to be 0.86; in [34], 0.09; in [35], 0.07; in [36] it was 0.05; in experiment [37], 0.08; in experiment [38], 0.06. The ratio to the IgG1 without 294Del in [39] stood at 0.27.
